Laboratory results: patent publication US8460910B2 (Illumina Cambridge Limited, priority 2003, dated 2013)

System: 3′ modified nucleotide
Assay: Gel-based incorporation assay of Example 2, two cycles of enzymology on bead-bound 32P-labelled DNA template
Assay type: biochemical
Conditions: for Time (mins) to 50% product conversion on second cycle of enzymology: 45° C., 50 mM Tris, pH 8, 4 mM MgSO4, 0.05 (v/v) Tween, 50 μg/ml enzyme, 2 μM 3′ modified nucleotide
Procedure: The mutant polymerases were assessed for their ability to incorporate a 3′ blocked nucleotide analogue using a gel-based assay as described in generic form in Example 1. The rates of incorporation of the modified nucleotides were compared to purified forms of related DNA polymerases in both a single round of incorporation and through two rounds of nucleotide incorporation. The DNA template that was used for these experiments was a commercially-synthesised biotinylated oligonucleotide.
The method for two cycles of incorporation involves the binding of the DNA primer-template to streptavidin-coated beads (Dynalbeads). These are prepared as follows: • Resuspend beads in storage pot by pipetting up and down Take 20 μL beads • Wash 3×200 μL TE buffer (10 mM Tris HCl pH 7.5, 1 mM EDTA) Add 50 μL B&W buffer (5 mM Tris HCl, pH 7.5; 1M NaCl, […]) • 25 μL H2O • 25 μL of ^32P-labelled biotin DNA template (final concentration of 100 nM)
The first cycle of enzymatic incorporation is performed on these beads as follows:
Incorporation mix 1 is added to the bead pellet from above.
Reactions are incubated at 45° C. for 15 minutes
The first cycle of enzymology is then deblocked by treatment with tri(carboxyethyl) phosphine (TCEP) as follows:
Add 65 μL TCEP (100 mM) in water and incubate at 65° C. for 15 minutes
After removal of the TE buffer, a second cycle of enzymatic incorporation is then performed by the addition of incorporation mix 2, as follows:
Take 5 μL samples out at ½, 1, 2, 4, 10, 30, 60 mins and add to gel loading buffer with EDTA.
Heat all samples to 95° C. for 10 mins and load 3 μl on a 12% acrylamide gel (Sambrook and Russell, 2001).
Time (mins) to 50% product conversion on second cycle of enzymology at 45° C., 50 mM Tris, pH 8, 4 mM MgSO4, 0.05 (v/v) Tween, 50 μg/ml enzyme, and 2 μM 3′ modified nucleotide. Time to 50% product conversion on first cycle of incorporation shown in parentheses. For other mutants the time to 50% conversion on the first cycle was not measured in these experiments

| Molecule | Time (mins) to 50% product conversion on second cycle of enzymology [min] | incorporation of 3′ modified nucleotide analogues compared to 9° N DM (Y409V/A485L) (region A variants, conditions of Example 2) |
| --- | --- | --- |
| YAS: 9° N polymerase mutant, motif A region YAS, also A485L; SEQ ID NO: 20 (protein, 9oN polymerase variant (exo-) with L408Y/Y409A/P410S mutations) MILDTDYITENGKPVIRVFKKENGEFKIEYDRTFEPYFYALLKDDSAIEDVKKVTAKRHGTVVKVKRAEKVQKKFLGRPIEVWKLYFNHPQDVPAIRDRIRAHPAVVDIYEYDIPFAKRYLIDKGLIPMEGDEELTMLAFAIATLYHEGEEFGTGPILMISYADGSEARVITWKKIDLPYVDVVSTEKEMIKRFLRVVREKDPDVLITYNGDNFDFAYLKKRCEELGIKFTLGRDGSEPKIQRMGDRFAVEVKGRIHFDLYPVIRRTINLPTYTLEAVYEAVFGKPKEKVYAEEIAQAWESGEGLERVARYSMEDAKVTYELGREFFPMEAQLSRLIGQSLWDVSRSSTGNLVEWFLLRKAYKRNELAPNKPDERELARRRGGYAGGYVKEPERGLWDNIVYLDFRSYASSIIITHNVSPDTLNREGCKEYDVAPEVGHKFCKDFPGFIPSLLGDLLEERQKIKRKMKATVDPLEKKLLDYRQRLIKILANSFYGYYGYAKARWYCKECAESVTAWGREYIEMVIRELEEKFGFKVLYADTDGLHATIPGADAETVKKKAKEFLKYINPKLPGLLELEYEGFYVRGFFVTKKKYAVIDEEGKITTRGLEIVRRDWSEIAKETQARVLEAILKHGDVEEAVRIVKEVTEKLSKYEVPPEKLVIHEQITRDLRDYKATGPHVAVAKRLAARGVKIRPGTVISYIVLKGSGRIGDRAIPADEFDPTKHRYDAEYYIENQVLPAVERILKAFGYRKEDLRYQKTKQVGLGAWLKVKGKK | 1.5 | best incorporation rate |
| CAA: 9° N DM-derived polymerase with amino acids 408-410 CAA (protein, UniProt Q56366 1-775, looked up, variant D141A E143A L408C Y409A P410A A485L) DNA polymerase: MILDTDYITENGKPVIRVFKKENGEFKIEYDRTFEPYFYALLKDDSAIEDVKKVTAKRHGTVVKVKRAEKVQKKFLGRPIEVWKLYFNHPQDVPAIRDRIRAHPAVVDIYEYDIPFAKRYLIDKGLIPMEGDEELTMLAFAIATLYHEGEEFGTGPILMISYADGSEARVITWKKIDLPYVDVVSTEKEMIKRFLRVVREKDPDVLITYNGDNFDFAYLKKRCEELGIKFTLGRDGSEPKIQRMGDRFAVEVKGRIHFDLYPVIRRTINLPTYTLEAVYEAVFGKPKEKVYAEEIAQAWESGEGLERVARYSMEDAKVTYELGREFFPMEAQLSRLIGQSLWDVSRSSTGNLVEWFLLRKAYKRNELAPNKPDERELARRRGGYAGGYVKEPERGLWDNIVYLDFRSCAASIIITHNVSPDTLNREGCKEYDVAPEVGHKFCKDFPGFIPSLLGDLLEERQKIKRKMKATVDPLEKKLLDYRQRLIKILANSFYGYYGYAKARWYCKECAESVTAWGREYIEMVIRELEEKFGFKVLYADTDGLHATIPGADAETVKKKAKEFLKYINPKLPGLLELEYEGFYVRGFFVTKKKYAVIDEEGKITTRGLEIVRRDWSEIAKETQARVLEAILKHGDVEEAVRIVKEVTEKLSKYEVPPEKLVIHEQITRDLRDYKATGPHVAVAKRLAARGVKIRPGTVISYIVLKGSGRIGDRAIPADEFDPTKHRYDAEYYIENQVLPAVERILKAFGYRKEDLRYQKTKQVGLGAWLKVKGKK | 15 | – |
